Test results reported in the supplement of paper PMC5998384.

Columns and labels:
HeLa Kyoto [1] = experiment: thermal stability score vs G1/S (z-score of summed log2 fold changes over temperatures); higher = more thermally stable than in G1/S
HeLa Kyoto [2] = experiment: solubility in G1/S (NP-40 vs SDS abundance) (log2 ratio); higher = more soluble; settings: cell cycle stage: G1/S
HeLa Kyoto [3] = experiment: solubility change mitosis vs G1/S (difference of NP-40 vs SDS log2 ratios) (log2 ratio difference); higher = more soluble in mitosis
HeLa Kyoto [4] = experiment: melting temperature (median over replicates), in situ; higher = more thermally stable
[5] = cell cycle stage: early G1 (4.5 h after nocodazole release)
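Throughout, for melting temperature (median over replicates), in situ: HeLa Kyoto cells synchronized by double thymidine or nocodazole block, proteins quantified by TMT10plex mass spectrometry, three independent biological replicates.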
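Throughout, for solubility change mitosis vs G1/S (difference of NP-40 vs SDS log2 ratios): synchronized HeLa Kyoto cells (double thymidine block for G1/S, nocodazole release for mitosis), protein amounts in NP-40 versus SDS lysates quantified by mass spectrometry, three biological replicates.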
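Throughout, for solubility in G1/S (NP-40 vs SDS abundance): HeLa Kyoto cells arrested at G1/S by double thymidine block, proteins quantified by TMT10plex mass spectrometry in mild NP-40 versus SDS extracts, three biological replicates.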
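Throughout, for thermal stability score vs G1/S (z-score of summed log2 fold changes over temperatures): synchronized HeLa Kyoto cells, proteins quantified by TMT10plex mass spectrometry, three biological replicates, mitosis taken 0.5 h after nocodazole release, G1/S directly after double thymidine block.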

MATPSKKTSTPSPQPSKRALPRDPSSEVPSKRKNSAPQLPLLQSSGPFVEGSIVRISMENFLTYDICEVSPGPHLNMIVGANGTGKSSIVCAICLGLAGKPAFMGRADKVGFFVKRGCSRGMVEIELFRASGNLVITREIDVAKNQSFWFINKKSTTQKIVEEKVAALNIQVGNLCQFLPQDKVGEFAKLSKIELLEATEKSIGPPEMHKYHCELKNLREKEKQLETSCKEKTEYLQKMVQRNERYKQDVERFYERKRHLDLIEMLEAKRPWVEYENVRQEYEEVKLVRDRVKEEVRKLKEGQIPVTCRIEEMENERHNLEARIKEKATDIKEASQKCKQKQDVIERKDKHIEELQQALIVKQNEELDRQRRIGNTRKMIEDLQNELKTTENCENLQPQIDAITNDLRRIQDEKALCEGEIIDKRRERETLEKEKKSVDDHIVRFDNLMNQKEDKLRQRFRDTYDAVLWLRNNRDKFKQRVCEPIMLTINMKDNKNAKYIENHIPSNDLRAFVFESQEDMEVFLKEVRDNKKLRVNAVIAPKSSYADKAPSRSLNELKQYGFFSYLRELFDAPDPVMSYLCCQYHIHEVPVGTEKTRERIERVIQETRLKQIYTAEEKYVVKTSFYSNKVISSNTSLKVAQFLTVTVDLEQRRHLEEQLKEIHRKLQAVDSGLIALRETSKHLEHKDNELRQKKKELLERKTKKRQLEQKISSKLGSLKLMEQDTCNLEEEERKASTKIKEINVQKAKLVTELTNLIKICTSLHIQKVDLILQNTTVISEKNKLESDYMAASSQLRLTEQHFIELDENRQRLLQKCKELMKRARQVCNLGAEQTLPQEYQTQVPTIPNGHNSSLPMVFQDLPNTLDEIDALLTEERSRASCFTGLNPTIVQEYTKREEEIEQLTEELKGKKVELDQYRENISQVKERWLNPLKELVEKINEKFSNFFSSMQCAGEVDLHTENEEDYDKYGIRIRVKFRSSTQLHELTPHHQSGGERSVSTMLYLMALQELNRCPFRVVDEINQGMDPINERRVFEMVVNTACKENTSQYFFITPKLLQNLPYSEKMTVLFVYNGPHMLEPNTWNLKAFQRRRRRITFTQPS [SMC5]
thermal stability score (HeLa Kyoto [1]; [5]): 0.153
thermal stability score (HeLa Kyoto [1]; cell cycle stage: mitosis): 0.876
solubility in G1/S (log2) (HeLa Kyoto [2]): -0.139
solubility change mitosis (log2) (HeLa Kyoto [3]): -0.0502
melting temperature (HeLa Kyoto [4]; cell cycle stage: G1/S): 50.6 °C
melting temperature (HeLa Kyoto [4]; cell cycle stage: mitosis): 50.7 °C

MAACTARRALAVGSRWWSRSLTGARWPRPLCAAAGAGAFSPASTTTTRRHLSSRNRPEGKVLETVGVFEVPKQNGKYETGQLFLHSIFGYRGVVLFPWQARLYDRDVASAAPEKAENPAGHGSKEVKGKTHTYYQVLIDARDCPHISQRSQTEAVTFLANHDDSRALYAIPGLDYVSHEDILPYTSTDQVPIQHELFERFLLYDQTKAPPFVARETLRAWQEKNHPWLELSDVHRETTENIRVTVIPFYMGMREAQNSHVYWWRYCIRLENLDSDVVQLRERHWRIFSLSGTLETVRGRGVVGREPVLSKEQPAFQYSSHVSLQASSGHMWGTFRFERPDGSHFDVRIPPFSLESNKDEKTPPSGLHW [POLDIP2]
thermal stability score (HeLa Kyoto [1]; [5]): 0.146
thermal stability score (HeLa Kyoto [1]; cell cycle stage: mitosis): -0.814
solubility in G1/S (log2) (HeLa Kyoto [2]): 0.07
solubility change mitosis (log2) (HeLa Kyoto [3]): -0.0327
melting temperature (HeLa Kyoto [4]; cell cycle stage: G1/S): 50.9 °C
melting temperature (HeLa Kyoto [4]; cell cycle stage: mitosis): 51.4 °C

MGEIEQRPTPGSRLGAPENSGISTLERGQKPPPTPSGKLVSIKIQMLDDTQEAFEVPQRAPGKVLLDAVCNHLNLVEGDYFGLEFPDHKKITVWLDLLKPIVKQIRRPKHVVVKFVVKFFPPDHTQLQEELTRYLFALQVKQDLAQGRLTCNDTSAALLISHIVQSEIGDFDEALDREHLAKNKYIPQQDALEDKIVEFHHNHIGQTPAESDFQLLEIARRLEMYGIRLHPAKDREGTKINLAVANTGILVFQGFTKINAFNWAKVRKLSFKRKRFLIKLRPDANSAYQDTLEFLMASRDFCKSFWKICVEHHAFFRLFEEPKPKPKPVLFSRGSSFRFSGRTQKQVLDYVKEGGHKKVQFERKHSKIHSIRSLASQPTELNSEVLEQSQQSTSLTFGEGAESPGGQSCRRGKEPKVSAGEPGSHPSPAPRRSPAGNKQADGAASAPTEEEEEVVKDRTQQSKPQPPQPSTGSLTGSPHLSELSVNSQGGVAPANVTLSPNLSPDTKQASPLISPLLNDQACPRTDDEDEGRRKRFPTDKAYFIAKEVSTTERTYLKDLEVITSWFQSTVSKEDAMPEALKSLIFPNFEPLHKFHTNFLKEIEQRLALWEGRSNAQIRDYQRIGDVMLKNIQGMKHLAAHLWKHSEALEALENGIKSSRRLENFCRDFELQKVCYLPLNTFLLRPLHRLMHYKQVLERLCKHHPPSHADFRDCRAALAEITEMVAQLHGTMIKMENFQKLHELKKDLIGIDNLVVPGREFIRLGSLSKLSGKGLQQRMFFLFNDVLLYTSRGLTASNQFKVHGQLPLYGMTIEESEDEWGVPHCLTLRGQRQSIIVAASSRSEMEKWVEDIQMAIDLAEKSSSPAPEFLASSPPDNKSPDEATAADQESEDDLSASRTSLERQAPHRGNTMVHVCWHRNTSVSMVDFSIAVENQLSGNLLRKFKNSNGWQKLWVVFTNFCLFFYKSHQDNHPLASLPLLGYSLTIPSESENIQKDYVFKLHFKSHVYYFRAESEYTFERWMEVIRSATSSASRPHVLSHKESLVY [FARP1]
thermal stability score (HeLa Kyoto [1]; [5]): 1.1
thermal stability score (HeLa Kyoto [1]; cell cycle stage: mitosis): 2.25
solubility in G1/S (log2) (HeLa Kyoto [2]): -0.198
solubility change mitosis (log2) (HeLa Kyoto [3]): -0.0824
melting temperature (HeLa Kyoto [4]; cell cycle stage: G1/S): 49.2 °C
melting temperature (HeLa Kyoto [4]; cell cycle stage: mitosis): 49.1 °C

MAALGPSSQNVTEYVVRVPKNTTKKYNIMAFNAADKVNFATWNQARLERDLSNKKIYQEEEMPESGAGSEFNRKLREEARRKKYGIVLKEFRPEDQPWLLRVNGKSGRKFKGIKKGGVTENTSYYIFTQCPDGAFEAFPVHNWYNFTPLARHRTLTAEEAEEEWERRNKVLNHFSIMQQRRLKDQDQDEDEEEKEKRGRRKASELRIHDLEDDLEMSSDASDASGEEGGRVPKAKKKAPLAKGGRKKKKKKGSDDEAFEDSDDGDFEGQEVDYMSDGSSSSQEEPESKAKAPQQEEGPKGVDEQSDSSEESEEEKPPEEDKEEEEEKKAPTPQEKKRRKDSSEESDSSEESDIDSEASSALFMAKKKTPPKRERKPSGGSSRGNSRPGTPSAEGGSTSSTLRAAASKLEQGKRVSEMPAAKRLRLDTGPQSLSGKSTPQPPSGKTTPNSGDVQVTEDAVRRYLTRKPMTTKDLLKKFQTKKTGLSSEQTVNVLAQILKRLNPERKMINDKMHFSLKE [GTF2F1]
thermal stability score (HeLa Kyoto [1]; [5]): -0.52
thermal stability score (HeLa Kyoto [1]; cell cycle stage: mitosis): -1.74
solubility in G1/S (log2) (HeLa Kyoto [2]): 0.237
solubility change mitosis (log2) (HeLa Kyoto [3]): 0.126
melting temperature (HeLa Kyoto [4]; cell cycle stage: G1/S): 52.7 °C
melting temperature (HeLa Kyoto [4]; cell cycle stage: mitosis): 53.3 °C

MALFAVFQTTFFLTLLSLRTYQSEVLAERLPLTPVSLKVSTNSTRQSLHLQWTVHNLPYHQELKMVFQIQISRIETSNVIWVGNYSTTVKWNQVLHWSWESELPLECATHFVRIKSLVDDAKFPEPNFWSNWSSWEEVSVQDSTGQDILFVFPKDKLVEEGTNVTICYVSRNIQNNVSCYLEGKQIHGEQLDPHVTAFNLNSVPFIRNKGTNIYCEASQGNVSEGMKGIVLFVSKVLEEPKDFSCETEDFKTLHCTWDPGTDTALGWSKQPSQSYTLFESFSGEKKLCTHKNWCNWQITQDSQETYNFTLIAENYLRKRSVNILFNLTHRVYLMNPFSVNFENVNATNAIMTWKVHSIRNNFTYLCQIELHGEGKMMQYNVSIKVNGEYFLSELEPATEYMARVRCADASHFWKWSEWSGQNFTTLEAAPSEAPDVWRIVSLEPGNHTVTLFWKPLSKLHANGKILFYNVVVENLDKPSSSELHSIPAPANSTKLILDRCSYQICVIANNSVGASPASVIVISADPENKEVEEERIAGTEGGFSLSWKPQPGDVIGYVVDWCDHTQDVLGDFQWKNVGPNTTSTVISTDAFRPGVRYDFRIYGLSTKRIACLLEKKTGYSQELAPSDNPHVLVDTLTSHSFTLSWKDYSTESQPGFIQGYHVYLKSKARQCHPRFEKAVLSDGSECCKYKIDNPEEKALIVDNLKPESFYEFFITPFTSAGEGPSATFTKVTTPDEHSSMLIHILLPMVFCVLLIMVMCYLKSQWIKETCYPDIPDPYKSSILSLIKFKENPHLIIMNVSDCIPDAIEVVSKPEGTKIQFLGTRKSLTETELTKPNYLYLLPTEKNHSGPGPCICFENLTYNQAASDSGSCGHVPVSPKAPSMLGLMTSPENVLKALEKNYMNSLGEIPAGETSLNYVSQLASPMFGDKDSLPTNPVEAPHCSEYKMQMAVSLRLALPPPTENSSLSSITLLDPGEHYC [OSMR]
thermal stability score (HeLa Kyoto [1]; [5]): 0.598
thermal stability score (HeLa Kyoto [1]; cell cycle stage: mitosis): -0.083
solubility in G1/S (log2) (HeLa Kyoto [2]): -0.0468
solubility change mitosis (log2) (HeLa Kyoto [3]): -0.0968
melting temperature (HeLa Kyoto [4]; cell cycle stage: G1/S): 50.9 °C
melting temperature (HeLa Kyoto [4]; cell cycle stage: mitosis): 51.1 °C
